Assay results taken from a protein production outcome set (Wang et al. 2014).

Experiment: label from the status in PepcDB records

| Sequence | protein production |
| --- | --- |
| PSPGGQMHAGISSFQQSNSSGTYGPQMSQYGPQGNYSRPPAYSGVPSASYSGPGPGMGISANNQMHGQGPSQPCGAVPLGRMPSAGMQNRPFPGNMSSMTPSSPGMSQQGGPGMGPPMPTVNRKAQEAAAAVMQAAANSAQSRQGSFPGMNQSGLMASSSPYSQPMNNSSSLMNTQAPPYSMAPAMVNSSAASVGLADMMSPGESKLPLPLKADGKEEGTPQPESKSKDSYSSQGISQPPTPGNLPVPSPMSPSSASISSFHGDESDSISSPGWPKTPSSPKSSSSTTTGEKITKVYELGNEPERKLWVDRYLTFMEERGSPVSSLPAVGKKPLDLFRLYVCVKEIGGLAQVNKNKKWRELATNLNVGTSSSAASSLKKQYIQYLFAFECKIERGEEPPPEVFSTGDTKKQPKLQPPSPANSGSLQGPQTPQSTGSNSMAEVPGDLKPPTPASTPHGQMTPMQGGRSSTISVHDPFSDVSDSSFPKRNSMTPNAPYQQGMSMPDVMGRMPYEPNKDPFGGMRKVPGSSEPFMTQGQMPNSSMQDMYNQSPSGAMSNLGMGQRQQFPYGASYDRRHEPYGQQYPGQGPPSGQPPYGGHQPGLYPQQPNYKRHMDGMYGPPAKRHEGDMYNMQYSSQQQEMYNQYGGSYSGPDRRPIQGQYPYPYSRERMQGPGQIQTHGIPLQMMGGPLQSSSSEGPQQNMWAARNDMPYPYQNRQGPGGPTQAPPYPGMNRTDDMMVPDQRINHESQWPSHVSQRQPYMSSSASMQPITRPPQPSYQTPPSLPNHISRAPSPASFQRSLENRMSPSKSPFLPSMKMQKVMPTVPTSQVTGPPPQPPPIRREITFPPGSVEASQPVLKQRRKITSKDIVTPEAWRVMMSLKSGLLAESTWALDTINILLYDDSTVATFNLSQLSGFLELLVEYFRKCLIDIFGILMEYEVGDPSQKALDHNAARKDDSQSLADDSGKEEEDAECIDDDEEDEEDEEEDSEKTESDEKSSIALTAPDAAADPKEKPKQASKFDKLPIKIVKKNNLFVVDRSDKLGRVQEFNSGLLHWQLGGGDTTEHIQTHFESKMEIPPRRRPPPPLSSAGRKKEQEGKGDSEEQQEKSIIATIDDVLSARPGALPEDANPGPQTESSKFPFGIQQAKSHRNIKLLEDEPRSRDETPLCTIAHWQDSLAKRCICVSNIVRSLSFVPGNDAEMSKHPGLVLILGKLILLHHEHPERKRAPQTYEKEEDEDKGVACSKDEWWWDCLEVLRDNTLVTLANISGQLDLSAYTESICLPILDGLLHWMVCPSAEAQDPFPTVGPNSVLSPQRLVLETLCKLSIQDNNVDLILATPPFSRQEKFYATLVRYVGDRKNPVCREMSMALLSNLAQGDALAARAIAVQKGSIGNLISFLEDGVTMAQYQQSQHNLMHMQPPPLEPPSVDMMCRAAKALLAMARVDENRSEFLLHEGRLLDISISAVLNSLVASVICDVLFQIGQL | not failed |
| MGLIDRYLAREILLPFAAALLFLTQILLATQILGQADVLFGSGVSLVDVGLVMLSLMPHLLGYVIPVAFLLGVVLGVGRLAEDREVVALGAAGLSPVRLVRVPLLLGLVVAALGAWLSLSVEPASIRAARLRLNDVVKRNVTNDVRGGTFYDQIPGYTIYTERARGGRWENVLIQDRSNPDAPMLALSRRGRLEPVGAGQDMRLVLEQGEVHREEVGTADYASAAFGKAELLVGLGTALSDRNVLAKSSREATVSDLRARAAAAREKGDVVEERRQEGYLHRKLSAPLVVVAFALLGVPLGAERRGGRAFGMGATFLLVVVHYLLLRGGEVLTQLGHLPAAFALQLPNLVLGAAGVALVLLMARRGPEAVR | failed |
| SGSEPTKVMVAVNASTIKDYPNPSISCKRAFEWTLEKIVRSNTSDFKILLLHVQVVDEDGFDDVDSIYASPEDFRDMRQSNKAKGLHLLEFFVNKCHEIGVGCEAWIKTGDPKDVICQEVKRVRPDFLVVGSRGLGRFQKVFVGTVSAFCVKHAECPVMTIKRNADETPSDPADD | not failed |
| MDFPQHSQHVLEQLNQQRQLGLLCDCTFVVDGVHFKAHKAVLAACSEYFKMLFVDQKDVVHLDISNAAGLGQVLEFMYTAKLSLSPENVDDVLAVATFLQMQDIITACHALKSLAEPATSPGGNAEALATEGGDKRAKEEKVATSTLSRLEQAGRSTPIGPSRDLKEER | failed |
| MVLLSIDFASLHTILESLYNEMMPLCEDMLGVAKGVAGLGALFYVALRVWQSMARAEPVDVYPLLRPFALGICILLFPTLVLGTMNSILSPIVQGTHRMLEGQTLDMQQYRAQKDRLEREAMMRNPETAYLVSDEEFDRQLDELGWSPGDAATRLGMYMEVGMYNLEKSIRDAFRSLLELLFAAASLLIDTVRTFFLVVLSVLGPIAFSISVWDGLQSTLGQWFTRYISVYLWLPVSDLFSCMLAKIQVLMLQNDIAELQGNPDYSLDNSNCVYIIFMLIGIVGYFTVPTVSGWIVQAGGGGNYSRNLNRTATKAGGFTAGAGGAALGNIGGRIRGK | failed |
| MRKITQAISAVCLLFALNSSAVALASSPSPLNPGTNVARLAEQAPIHWVSVAQIENSLAGRPPMAVGFDIDDTVLFSSPGFWRGKKNFSPESEDYLKNPVFWEKMNNGWDEFSIPKEVARQLIDMHVRRGDAIFFVTGRSPTKTETVSKTLADNFHIPATSMNPVIFAGDKPGQNTKSQWLQDKNIRIFYGDSDNDITAARDVGARGIRILRASNSTYKPLPQAGAFGEEVIVNSEY | failed |
| MEYFLPLISIVTISYNAVNLIEKTILSVVEQDTADFEYIVIDGGSTDGTVEVIRKYENAISYWVSESDKGIFDAMNKALSVAKGDWVIFMNSGDCFYNNHVLSEIAIYMKDEETELIYGDVNLFSGKRNFIFKQRVSGININLNSVCHQTVFIRRKLHPYFDVRYKLTADHDIIFDFIKRGQYIHANIVIAKVLLGGVSHDVIKTSLEKLLISYRKGTFMDLLLSPLCNIYQVIKYFVKKLLISALPIELFNKMSRMKSKMESNFLEHHHHHH | not failed |
| MKTINLSIFGLGNVGLNLLRIIRSFNEENRLGLKFNVVFVADSLHSYYNERIDIGKVISYKEKGSLDSLEYESISASEALARDFDIVVDATPASADGKKELAFYKETFENGKDVVTANKSGLANFWPEIMEYARSNNRRIRYEATVAGGVPLFSFIDYSVLPSRIKKFRGIVSLTINYFIRELANKREFDDVLSEATKLGIVEKNYKDDLTGLDAARKSVILCNHLYGSSYRLSDVFYEGILDQDRSFGKNERLVTETGIVNGKPSAESRIKSLDSNDYLLTLGKGSLGYQLQTDTNGTLNVSDLYDGPYETAGAVMNDLVILSMFTV | not failed |
| MEQTQQNHFTALFYKNVLLGILSMAAQSIFILADTFFIANGIGTEALAGLNIVLPLVNIINGLGWMFGVGGATLFSTTVAQKEIKKANQYFSLTIGLVFVIGRLFTLVSLIFSDQIIRGLQGTGVLFGLAKEYYMIYLSCSLLFILNNCLITFLRNDHNPRLATIAFVSGGIVNIILDYVFIYQFGWGMAGAAIATVMSPLTSLILITLHKWSPQRVLRFEKFKVKFQDVREIMSIGFSSFLNEFSSAFVMFLFNIVLLNLVGHVAISAYAIVANLNIIVIAIFTGIGQGAQPLLSRYYGLGETKVLRKFVKLSFITYLVAGFLFFLISQVFTGQIIEVFNSEGNDQLAQIARTAIRLYAISFLFTGLNFMGIYYFSAVRKPKMALMISSLRGFFLIVPVLFILVKLLGLTGVWLAMPVVEFVTFGLMLVGYLAYRNYLKKREAVT | failed |
| TPIINDPETVKLFLLTELQHEEREVFMVLFLDNQHRLIKKERLFLGTIYVSAVYPREIIKEALYCNAAALILAHNHPSGITEPSYSDQLITKKIQDAAELMEIRVLDHLIVGKSDCYSFAENCLL | failed |
| MRLLSSPINRGFFDYVELYPSLVSSYFPPPDRPSAVLSVGETRYVNSVKQTASLDSLNDYEEQFPPLTGGSKTKKFYLGSTNPSTPCQSSQLQNWTSGKDALSLQRNLGCKNRRRRRASRFLHEESNGTTFEVGAGIGSPTSMVHFDSTNPSSSSKSSQSQNLKIRKVRNHRNSGFKSRDQSPQRIKDPPPFDICSSVLERNDTSIKDWILADETNRETVEVSNKHKVIRPGMVLLKDFLTPDIQVDIVKTCRELGVKPTGFYQPGYSVGSKLHLQMMCLGRNWDPQTKYRKNTDIDSKAPEIPVTFNVLVEKAIREAHALIDRESGTEDAERILPVMSPDICIVNFYSETGRLGLHQDRDESEESIARGLPIVSFSIGDSAEFLYGEKRDVEEAQGVILESGDVLIFGGESRMIFHGVKSIIPNSAPMSLLNESKLRTGRLNLTFRHF | failed |
| MAKLSRKERHRLLLQKIKENPFITDEELAEEFGCSVQTIRLDRAILDIKEVRERIKEMAKESLGKLKTISPRDVVGEIIDIELGSYAIATFEPELWMTFSNSQMVKGQHIYAFAESIAMSVIDAKAALIGIANIKYKTPVFANDRLVARAELKKKRNNKYIVWVFIKRNNEEVFRGKFILVAIDDENKETGQTGV | failed |
